Where “and” joins values, the source holds several entries; their conditions need not be identical. Equal entries are not always repeated.
Target: the molecule itself
Assay: native MS

B1: Glutamate dehydrogenase, purified from bovine liver (enzyme)
chain: not shown
With B1 the “stoichiometry N” value was 6 and 12.

— article PMC5157838 (Analytical chemistry, 2015)
